Measured values: article PMC3589550 (Nature structural & molecular biology, 2011)

B1: vIRF4^153–256 (domain or fragment)
chain: SDTREQSYEEAGAAAPAPPKAPSGLRGRPRKSNRYYNVGDITTEQKAACSVWIPVNEGASTSGMGSSGTRQVTQASSFTWRVPGDPPAPSTLTGPSDPHSSGAG
B2: vIRF4^153–256/Δ202–216/Δ237–256 (domain or fragment)
chain: SDTREQSYEEAGAAAPAPPKAPSGLRGRPRKSNRYYNVGDITTEQKAACGSSGTRQVTQASSFTWRVPG
B3: MDM2^137–152 peptide (peptide, UniProt Q00987 137-152, looked up)
peptide: DLVQELQEEKPSSSHL
B4: vIRF4^153–256/Δ202–216 (domain or fragment)
chain: SDTREQSYEEAGAAAPAPPKAPSGLRGRPRKSNRYYNVGDITTEQKAACGSSGTRQVTQASSFTWRVPGDPPAPSTLTGPSDPHSSGAG
B5: vIRF4^153–216 (domain or fragment)
chain: SDTREQSYEEAGAAAPAPPKAPSGLRGRPRKSNRYYNVGDITTEQKAACSVWIPVNEGASTSGM
B6: EBNA1^435–449 peptide (peptide)
peptide: EQGPADDPGEGPSTG

What follows are binders tested against HAUSP^62–205 (HAUSP TRAF domain) (UniProt Q93009 62-205) (assay: ITC).
Chain of HAUSP^62–205 (HAUSP TRAF domain) (Q93009 62-205): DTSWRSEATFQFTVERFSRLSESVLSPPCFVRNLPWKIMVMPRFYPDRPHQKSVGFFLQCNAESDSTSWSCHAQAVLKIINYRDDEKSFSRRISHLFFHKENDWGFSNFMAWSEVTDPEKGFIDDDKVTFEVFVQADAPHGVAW
In the case of B1, the Kd is reported as 0.076 µM.
Binder B2 has a Kd of 4.03 µM.
B3 showed a Ka of 91000 M⁻¹ and a Kd of 11.1 µM.
With B4 the Kd was 3.45 µM.
B5 was tested, and the Kd was 0.54 µM.
B6 showed a Kd of 0.48 µM.
